Results reported in patent US20190300577A1 (BETH ISRAEL DEACONESS MEDICAL CENTER, published 2019).
Ends that are not written are not given here.

Experiments:
[1] = target: T1, recombinant human P-selectin Fc chimera (human, UniProt P16109 42-771); test: Biacore; biotinylated glycopeptide captured on a streptavidin chip, hP-sel-Ig flowed over (trace shown at 20 µg/ml) [lower left panel 'hP-sel-Ig (20 µg/ml)' (D in the legend]
T1 construct: also called P-sel-Ig; recombinant Ig chimera of P-selectin
T1 sequence (P16109 42-771, change not shown): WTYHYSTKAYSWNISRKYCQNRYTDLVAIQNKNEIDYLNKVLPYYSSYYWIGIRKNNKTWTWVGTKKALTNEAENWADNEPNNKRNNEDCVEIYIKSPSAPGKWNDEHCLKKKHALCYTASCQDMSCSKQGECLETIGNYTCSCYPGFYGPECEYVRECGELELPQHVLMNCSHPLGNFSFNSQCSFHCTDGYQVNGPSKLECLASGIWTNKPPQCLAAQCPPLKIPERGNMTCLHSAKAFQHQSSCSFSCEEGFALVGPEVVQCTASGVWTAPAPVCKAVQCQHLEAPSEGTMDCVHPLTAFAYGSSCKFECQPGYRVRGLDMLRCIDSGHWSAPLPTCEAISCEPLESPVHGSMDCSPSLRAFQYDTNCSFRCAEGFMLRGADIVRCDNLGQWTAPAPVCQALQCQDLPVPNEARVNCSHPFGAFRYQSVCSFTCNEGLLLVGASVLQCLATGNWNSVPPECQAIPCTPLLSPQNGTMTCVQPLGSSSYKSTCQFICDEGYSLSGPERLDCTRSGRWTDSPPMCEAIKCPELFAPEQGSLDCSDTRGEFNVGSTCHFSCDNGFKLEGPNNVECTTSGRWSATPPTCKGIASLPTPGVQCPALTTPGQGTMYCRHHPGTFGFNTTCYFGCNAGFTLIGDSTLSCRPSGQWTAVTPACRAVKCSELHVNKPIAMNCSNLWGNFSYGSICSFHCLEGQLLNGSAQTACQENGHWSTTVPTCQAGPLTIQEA
Source text: (§1) GSnP-6 bound to E- and L-selectin with even lower apparent affinity.

[2] = target: T2, recombinant mouse P-selectin Fc chimera (mouse, UniProt Q01102 42-709); test: Biacore; biotinylated glycopeptide captured on a streptavidin chip, mP-sel-Ig flowed over (trace shown at 20 µg/ml) [lower middle panel 'mP-sel-Ig (20 µg/ml)' (E in the legend]
T2 construct: also called murine P-selectin; P-sel-Ig; not shown: Ig (Fc) part of the chimera
T2 sequence (looked up): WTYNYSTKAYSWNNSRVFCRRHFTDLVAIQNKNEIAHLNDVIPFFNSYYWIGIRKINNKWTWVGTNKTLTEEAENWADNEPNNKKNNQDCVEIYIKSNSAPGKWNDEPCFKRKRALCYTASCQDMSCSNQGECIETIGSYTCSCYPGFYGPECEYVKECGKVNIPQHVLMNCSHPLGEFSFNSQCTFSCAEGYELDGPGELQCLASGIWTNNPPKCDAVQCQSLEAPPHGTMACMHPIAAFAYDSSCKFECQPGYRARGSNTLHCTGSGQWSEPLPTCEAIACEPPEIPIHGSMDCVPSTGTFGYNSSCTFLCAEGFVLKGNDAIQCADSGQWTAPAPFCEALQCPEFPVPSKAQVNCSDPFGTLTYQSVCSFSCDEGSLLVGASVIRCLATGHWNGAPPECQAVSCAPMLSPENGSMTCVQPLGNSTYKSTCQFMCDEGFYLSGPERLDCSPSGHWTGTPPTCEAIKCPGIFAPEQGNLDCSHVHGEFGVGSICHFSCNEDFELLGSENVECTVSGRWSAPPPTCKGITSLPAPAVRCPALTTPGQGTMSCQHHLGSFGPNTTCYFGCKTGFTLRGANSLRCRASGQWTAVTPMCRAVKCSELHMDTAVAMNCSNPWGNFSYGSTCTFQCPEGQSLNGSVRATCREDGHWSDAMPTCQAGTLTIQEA
Source text: as §1

- Kd [1]: ~9 nM
- Kd [2]: ~128 nM
B1: GSP-6 (peptide, UniProt Q14242 45-61, looked up)
peptide: EYEYLDYDFLPET(Core‑2 O‑glycan hexasaccharide with sLe^x)EPPE
modifications: also: tyrosine O-sulfate, positions not given here
notes: Synthetic glycosulfopeptide
